Test results: a protein production outcome set (Wang et al. 2014)

Assay: label from the status in PepcDB records

Sequence	protein production
MMRRYFYQFSQKMITSVWWLLFVPMLLFAVMSPNIILGDNATFGTSTTLLTTGLIIVIVAVLIMNYAYPRVHRGLYRLLITKQLRTAGVLLALVFIGQLVFVTFVHPVSGFDAGMLHYAATSAKHVQEVGVTAYYSLNQNNMPIMLFMHWLSEVTGQTSWQFFDYVTLFFVDLSAAFNLMSVFVVRRSALGIAMYLHAGWLAVFPSIIMPYTDAWGLPLVSFFMLCYFVMSQTKRPPLLRVAAAVGFGVSVTLTYFMKPSSIIPVIAIAIISFLARLRSRQGSQTTMIFVTVAMAILMLESAGLTYHYTNQAIQNQTYIKIDKSRSIPAIHFMAMGVYGSGGYSEKQAIQMAVLPTKAQKTAYSIKMLKRQLKKLGPWGYLEFLVKKQRNNTADGTFGWLKEGNFFRENQKPSNQGFSNWLKNFIYLYGRHIADFRFVAQLWWLVLLVIIALGFGPRWQLIQLLRLAMIGGFIFLLLFEGGRSRYLIQYLPCLLLLGAFSFERAVANIRRVRDWYQRKLRAAIAADESE	failed
MMSRKRWLALIAAAMLFVASAAISLVSSPAVDVDEWVGTGTSYKQTIVETGTDFGKSIAILELSGVIQDTGSAPSLLNTGVYHHRDFLKQLEKAGEDPNIAGIILQVNTPGGGVLESAEIHKQVEEIVQDSEKPVYVSMGNMAASGGYYISAPATKIYAHPQTITGSIGVIMQSIDISGLAENLGIEFNTFKSGPYKDILSQTREVTDEEEDILQTLVDEMYDEFVRVIVDGRGMSETEVRELADGRIYTGSQAVATGLVDELGGLDDVIESMKEDLGADYNVIRYEHSLGLYDFFSMSTNRLLSPSYELQSIERLLNQSNTPTLQYLYAELEHHHHHH	not failed
MMSTPALRPYLPEDAAVTAAIFVASIEQLTADDYSEEQQEAWASAADDEAKFAARLSGQLTLIATLQGVPVGFASLKGPDHIDMLYVHPDYVGRDVGTTLIDALEKLAGARGALILTVDASDNAAEFFAKRGYVAKQRNTVSINGEWLANTTMTKSLADSAAPGASS	not failed
MMSVLARMRVMRHRAWQGLVLLVLALLLSSCGWRGISNVAIPGGPGTGPGSYTIYVQMPDTLAINGNSRVMVADVWVGSIRAIKLKNWVATLTLSLKKDVTLPKNATAKIGQTSLLGSQHVELAAPPDPSPVPLKDGDTIPLKRSSAYPTTEQTLASIATLLRGGGLVNLEGIQQEINAIVTGRADQIRAFLGKLDTFTDELNQQRDDITRAIDSTNRLLAYVGGRSEVLNRVLTDLPPLIKHFADKQELLINASDAVGRLSQSADQYLSAARGDLHQDLQALQCPLKELRRAAPYLVGALKLILTQPFDVDTVPQLVRGDYMNLSLTLDLTYSAIDNAFLTGTGFSGALRALEQSFGRDPETMIPDIRYTPNPNDAPGGPLVERGNRQC	failed
MMTCDEIRLPKPPRLQPFLFLLRNDSLSKYSQPPRFDLARILFSLVFITIMIIACFWVVQPFILGFAWACMVVIATWPMLIKFQALLWGRRSLAVLVMTLLLILLFVVPIAVLVSSVIDNSSALMSWGSRQENLSPPTLEWLTSIPLVGEKLFNSWQALLQSGGSGLFAKVQPYFGKTATWLVAQAAHVGRFLMHCSLMLIFSALLYYKGEAVAKAVRHFAIRLGRERGDAAVILAAQSIRAVALGVVVTAIVQSVLGGIGLGLSGIPYTTLLTVLMFLCCLAQLGPLLVLIPAIIWLYWTGDNTWGTILLVWSCVVGTIDNVIRPMLIRMGADLPMLLILSGVIGGLLAFGMIGLFIGPVVLAVSYRLLFAWMREIPEPQNLLSVNTTKTPNKES	failed
MMTITTDRTPPAAGAALDRNRSAYAGLADVLERAGLAEHALYLNWGYRPVDGQPDWAARELPPGELGRMQARLVLEVLGDTPLDGRRVLDVGCGRGGALALMGRLHAPAALAGADISAANIAYCRKRHTHPRLRFQIADACRLPYPDSSMDVVFNLESSGAYPDIGAFFHHVHRILRVGGRFCLADVFDADSVAWVRAALEQAGFTLERERSIPAQVRAARERASPGIWRRLDTALTALDAPGLRRELERYLAAPSSGLFQALEDGRVDYRLFHWRKTCPAAGRIDADVIARLATRSARLDAALQDRAPSAAAPQSPAPGPANASASAWFPFTAPDAQAGFNVFALPYAGGGASVYRAWTLPRRPGAAPWQLCPVQLPGRESRFGEPLIDDMATLADRLADAIGPYAHRPWALLGCSLGCKIAFEVARRFARQGRPPALLFLMACPAPGLPLGRRISTRAEADFAREVCHLGGTPPEVLADAEMMRTLMPILRNDSALAEHYVAAEDATVNVPIVMVAAGDDHLVTVEEARRWQRHAGAGFDWRLVDGGHFFLRQRRRELTDWLLDALRRGERTLPVQTTTTDVPDVPCSTPEQPRDPSRMPAPGASANLVLAPGEILVVTAPRSLAARLTPAVLSDDEQRQLARFAFDADRERYLAAHWAKRRVLGALLAAAPRSLRFGAQAGGKPYLIGEALHFSLSHSGDRVAVAVCRHAPVGVDIEQARGIACHASAARIMHPLDRIAPQCETPEDRFLAAWSLKEAVAKCTGAGLALPFDSLRLAFAGNGRYGCLLGTHAAWEAHHQHEDGVHLAVASATPWAALRILPLDAALAEG	failed
MMTPSRAEKSLTIVIPALNEQDKIADTIDGVLPLARELLDDFEIFLIDDGSTDATGAIMNEFAASDRRITVHHNAERRGVGAGFEYALSRAKFDAITLIPGDHAFQNEGIARMFKAVGAADMVITYRDNQSDRSVNRSIQSHSLRFVLNCMFGFWLSDYHSMIVYPVKWLRQIAVRADGYGYQICALISLLQLGLTYVQVPVSLNAELKGSSRALRLRTYLELIGTIVSLLRRVPIRDVDRDQVPVDAGRTPAR	failed
MMTTAEQIPFQLILNSGNARSFAMEALQFAKQGKMAEADEAMVKAKEAINEAHHFQTELIQSEARGEKTEISVLLIHAQDHLMNAITVKELAAEFIDLYKKLEAKGE	not failed
MMTVVKGLVTFRPMFALVLLSALVGCASAPKKAPPPSSFDATMSRAEAEVTNGGPEQALKTFEDAGRADPTRKEPWVRIAQLQFDRANYARAIVAAQEVLQRDPNDLVADGVLTVAGFRIANQSLQRLQGRGALVSGTARKEAEMLASTLRATMGDDILQPDEPKKRKPVRNARRAAPPAAKDAAPPKQTPNASADPFQNLGGN	failed
MMYFGIIPLILFIIFLISYLKDPRKIINGFLFNAFICFFLLFCVIVSLNSDSDVLRYIIFLPFLALLIMLPFGIVALMFGLFLNARILMKREGRRFTNCLTLLAALGMLFFMLLPIINPASLVSSHLEPIFAAISLISIYFFIHLSNFLSAYFLYQFNRPRRNQDFIIVLGSGLINDKVPPLLASRINKAIDFYWKQAAVNTPPTIIFSGGQGPDEGLPEAEAMQNYAVEKGIPIEHTVQENRSVNTYQNMLFSKEIMDSLKPEGKYKSIFTTNNFHLFRAGIYARQAGLNSQGIGSKTAFYYWPNAMIREYVAIVVMGRKRHMKICGTILGFAVFVSILSFIFS	failed
MNAADRVMQSYGRCCASTGFFDDFYRHFLASSPQIRAKFATTDMTAQKHLLRAGIMNLVMYARGMSDSKLRALGASHSRAALDIRPELYDLWLDALLMAVAEHDRDCDAETRDAWRDVMGRGIAVIKSYY	not failed
MNADTAIRIIEPPPSRGQLLYDGIRSLRKPKPDAAPQLPTERLVRPAVELKADEIARYARACGFRREHGVPLAFPHTLAFPLHLLLLTRPTFPYPASGMVHLANRIRQYQRLEEGQALRLEVFAERWLAHPKGQALSIATRAHSGGSLVWESDSLYLRRGVAGPIGEPWEGSLQWDEQALVRTQRWSLGGDLGRRFAQVSGDFNPIHTSWLGARLFGFRRPIAHGMWTLGRALAAQQPPHPLAAAQLDCEFKLPIFLPAAVTLWNRLPDGPRHEFEVRNNAGDKPHMRGLFIWGAR	failed
MNAGHLKEAAALYAEIVALNPGWEHGTALYSLACCYEDLGELTSAEECYRRALSYEPESPTFIGGLASFLHLHGSQS	failed
MNAIWIAVAAVSLLGLAFGAILGYASRRFAVEDDPVVEKIDEILPQSQCGQCGYPGCRPYAEAISCNGEKINRCAPGGEAVMLKIAELLNVEPQPLDGEAQEITPARMVAVIDENNCIGCTKCIQACPVDAIVGATRAMHTVMSDLCTGCNLCVDPCPTHCISLQPVAETPDSWKWDLNTIPVRIIPVEHHA	failed
MNAKLEVNGELVKESYVYLLSRYLVLRQENFDTKEDKIPYNTLKHNSVAPADANFVNPNFDVVYSEAWIAVDDDNAVILEVPEIKNRYYTVQLLDGWGEVVTNINERNYPDHPYGKFAFVKKGTNPSVPSDAVKIELPSEKVKVLLRVEQKDDPEGAVKLQKAFKFDAPDNIKIKEPLEIPHFTNADFLLEEIYSNLEELLATYPDKMPKAAEFQDKARQVAAYIELGDEQKAEVRNLIVKEAIPYFTDGAKGFGTQKGGWSVTYVAGAFENDILARAIINYGGIWANSIQEALYFIGQQGTDGELLSGDKVYKIHFPKDQLPNGLAEAFWSVTLYGVPDYHVIPNKLNKFSINDYTGPKTNEDGSLSLYIAAEKPADVDPGNWLPSKAGKGFSLNFRLYVPKKEVLEGKVFLPPLEVL	failed
MNALARLRGRKVVPQRSDGELDAMAAAGAVVAAALQAVRAAAVAGVSTLSLDQIAESVIRDAGAVPSFLGYHGYPASICASVNDRVVHGIPSAAEVLAPGDLVSIDCGAVLDGWHGDAAITFGVGALDPADEALCQGTRESLEAGIAAMVPGNRLTDVSHAIELGTRAAETRHGRAFGIVEGYGGHGIGRQMHMDPFLPNEGSPGRGPLLAPGSVLAIEPMLTLGTGKTVVLDDQWTVITTDGSRAAHWEHTVAVTDAGPRILTIG	failed
MNALPSSAEFSRAVGGDAVSREAVIRIEHLSKTFSDAAGPVLDDVSLTIRRGEIHGIIGRSGAGKSTLVRCINLLERPSAGRVIVSGREITSLRGRALRNARRDIGMIFQHFNVLSSHTVAGNVALPFKVAGLPRAEIARRIPPLLELVGLAHKADAYPSELSGGQKQRVGIARALALDPSVLLCDEATSALDPETTDQILALLRDINRKLGLTIVLITHEMHVVRDIATRVAVLDHGRVVEEGATFDVLAFPKSAVARSFLSGLVAHELPPPVAAQLLPAAVPGSDPVLRIVFTGTAAHDPIVADLVSVFGIQPNILHGRIDYVGDRPLGVLTLVAGGAGEKLPAVLSHLSSLGLVVEVIGHAVRSAVARRHSAARLEHHHHHH	failed
MNALRKVGAVAWAAVGSLLLSGCEFNGWYDVQLPGGAAADGHAYHVTVEFRDVLDLVPQSAVKVNNVTVGAVEEVQLDGWHARVRLRVADSVKLPANAVAELRQTSMLGEKYVALSTPPGTAPVGRLGDGDRIPLSRSGRNPDIEEVLSALSALLNGGGVAQLKTITVELNKALDGREDRVRSLLKELNTFIGGLDGRRKDIIHALKAVDRLAGRLGKEKKTIAQAVDTMPPALKVLADQRRDLTRMLTALSKLGTTGTKVVNASHDDTVANLKQLRPILQQLNKAGADLPNSLELLTTYPFPRNAVDAVRGDYVNLDITADLDLSALYRNLAGGSDKSGGGNGESTQPETPDIPDLPDLPTVPTPTALPSAPSLPSSPSMPSAPSGGGGPLCPPVCTSSYTTRGEPPEGIDLALAELMLKGVQP	failed
MNANENVSDDRFAEMVWEAVSGGATLKDVHGIPQDMMEGLYAHAYDFYHKGRLDEAETFFRFLCIYDFYNPDYIMGLAAVCQLKKQFQKAVDLYAVAFALSKNDYRPVFFTGQCQLFMRKAAKARQCFELVCEQSGDESLRDKAQVYLDSLQEAEAEQSRQQEKEQA	failed
MNAPLSHSRPMMQPSEDKSLATVFPFAGRVLDETPMLLGEGPTFDPASGTAWWFNILERELHELHLASGRKTVHALPFMGSALAKISDSKQLIASDDGLFLRDTATGVLTLHAELESDLPGNRSNDGRMHPSGALWIGTMGRKAETGAGSIYHVAKGKVTKLFADISIPNSICFSPDGTTGYFVDTKVNRLMRVPLDARTGLPTGKAEVFIDSTGIKGGMDGSVCDAEGHIWNARWGEGAVDRYDTDGNHIARYEVPGKQTTCPAFIGPDASRLLVTSAREHLDDDAITANPQHGLTFELGIEVKGRFEPLYRL	not failed
